# In article PMC5327507, “Enhancing the thermostability of α-L-rhamnosidase from Aspergillus terreus and the enzymatic conversion of rutin to isoquercitrin by adding sorbitol” (BMC Biotechnology, 2017):
# Tested on: C[C@@H]1O[C@@H](Oc2ccc([N+](=O)[O-])cc2)[C@H](O)[C@H](O)[C@H]1O
# Experiment: purified protein
# Conditions: pH 6.5, 65 °C, no additives
substance,measurement,value
α-L-rhamnosidase from A. terreus (Rha; synthetic gene MRha; RASE) (Aspergillus terreus),Km,481 ± 10 µM
